Reference: patent US20150337309A1

What was measured:
[1] = biological target: integrin αvβ5 on breast cancer cells (MCF7, 4T1, MDA-MB-231); experiment: cell-based or functional assay
[2] = biological target: integrin αvβ3 on breast cancer cells (MCF7, 4T1, MDA-MB-231); experiment: cell-based or functional assay

cell adhesion to periostin-coated wells after treatment with anti-αvβ5 antibody [1]: 50 % of control
cell adhesion to periostin-coated wells after treatment with anti-αvβ3 antibody [2]: 50 % of control
Substance: periostin (recombinant protein purchased from R&D system, as coated on wells or added to cells) (ligand)
